A short description of the data set: soluble fraction after stress (log2 fold change); higher = more stays soluble; pooled small domains, quantitative proteomics. The following applies: stress: 75 degC.
For the sequence “HMTNKQEYAYQWLKSSIIENKIKPSTLLVERHLSEMLHISRTPVRTALMRLADEGFVVISPGRGMVVA”, the “soluble fraction (log2)” value is -2.32.

Consider “HMTNQEFNAAFKPFLDYFPTTEMTKEKINIYYLALSDLSKEQLGSAFISMVKNRVYKNFPQVAEIRQYATN”, for which the “soluble fraction (log2)” value is -0.803. With “HMTNTDYPGKVVPVDPDGKTLKPDGDASYNDKPGTKVKTPTVPGYTAEVPNVEVPVGGGDIKVTYHKKPV”, the “soluble fraction (log2)” value is -0.0351. Take “HMTNVYSLIGKRGIVVEDIDWQKGTGQVKIDGELWSVKTNEQINISKGTEVEVENIEGVKVFVKPI”: the “soluble fraction (log2)” value is -0.121. The result for “HMTNYGTVRPGARGQAVTALQQALIRHGYKLTADGIYGRATRQAVRAFQQKHKLKVDGIVGSKTWALLLAD” reads -2.13; that for “HMTPDGNATVWSANGYGVRLRTGPGKGYAIIGVYSVGTTVKVLERGPAGGWDHIQVGSRVGYMMNEFLHYY”, -3.16. The result for “HMTPDLSEFKERLRQILPGEPIEVRTANDGIVLSGTVTSIAALDRALDLAERYAPDKVSNLLSVG” reads 0.149; that for “HMTPELTAEEREVLSLLGDEPRTLAELIAASGRDYAALSVLLMGLELSQAVRQLPGNRYERF”, -0.84; that for “HMTPGPFLVYITGAVERPNVLVTLDYGSRVIDALNAAGGSRIDANLDLVNLAQRLVDGDQIHVPTLR”, -1.17. For “HMTPGPYETLKPAPLGSYIEPKIGFATAIEIARKEAVQLGIKTEAGGIWYGGDFPFYNVSFFDPDD” the value was -0.842. On to “HMTPKVTVPDVTGQTFSSAKQILESLGFTVKQQGSTDETDQVIDQNPTSGEADKGATITLTTKSS”, for which the “soluble fraction (log2)” value turned out to be 0.0908. Consider “HMTPPAQQPHEGLPTDETATDAKTLVQKSRWWLEEEQRQREAGNTAYAERIRLALIQLLYRAERA”, for which the “soluble fraction (log2)” value was -0.713. For “HMTPQNAAAVLRYLSSGAIKGVGPSTAQRIVEKFGAESLDIIQNKPEELATIRGISLSKALAVSEEYNKQY” the value was -0.289.

Turning to “HMTPTFSNQDLIKAGLAGSPVAKRRRERLGELLGIGYGNAKQLLKRLDLFAIDRPTFERAVAQLDQEGK”, the “soluble fraction (log2)” value is -0.465. “HMTPVSQIATKDIEEKIDSLSDEYKDPFILHFKGFKYKEIADQLDIPIGTVKSRIFIARKKLIDLLPDY”: the “soluble fraction (log2)” value came out at 0.0524.

As for “HMTQEHDESVNLGKRLLDQALSRFGTSYRQLKKSEIKRILQSSGASTFKYILHQIGLGNRVPLAIANLIV”, the “soluble fraction (log2)” value is -0.0539. With “HMTQEMPAEVKKKADAFNNAMDEENYTEAKAILAELEQNTAPSYPLLLQMQTRYAFETASWE”, the “soluble fraction (log2)” value is 0.00338.

Consider “HMTQFSASSERAGAGGAYRTTLRAMEQNGDLLQISILLPDAVTAKHAATVWPERAQAIYTAILSELLK”, for which the “soluble fraction (log2)” value was -1.71. The result for “HMTQGIDQISFSQFLDKVQSGEVTDVRISGSDITGTLKTGGKFETVAGNYEKIWDLLRENKVVFVVDSP” reads 0.332. For the sequence “HMTQNSAITNRVLYMQRTLRQYGYAVPESGNFDRTTRAHAAEFLYNATGLPVRENQSVQEFYRAFQRVQG”, the “soluble fraction (log2)” value was -1.77.

In the case of “HMTQRRLQSELDSIPGVGAGTRTKLLRTLGSVDAVLRASEAELLAAGANRRQVASIQAHAAAVER”, the “soluble fraction (log2)” value was -0.0213. For “HMTQSQSLQSQFEQLEKAYQDNLHLLSPKQKLIIQEAGKIIQQLPQQAQIQAKVNLYQSLSAEISKESQQ” the value was 0.1.

In the case of “HMTQTDINQIETLVHEGNKLAAVKLLMDTAHIGLKEAKDIIDNFFLGKQTDLQAAVAQVQTR”, the “soluble fraction (log2)” value is 0.902. As for “HMTRHIQVNDSIASTPIEDVYFSTRTYNALLNNGISVIGDLSKYTHDDLYASFQGLGRAGVLEIEAYLRQD”, the “soluble fraction (log2)” value was -1.43. For “HMTRHSSVDFAGYILRNKENEPIFGFGKHKGKTVVEVLQREQGYFGWLMEADFPLYTKKVLTAIRLNTLNS” the value was -0.261; for “HMTRLDLQNAFRVLPPEIQPAAVLFFLQERKQREIAKILGIGLPLVKYRIRKARELLAQFLRKEA”, -0.225; for “HMTRNEFLTALRGRLSALPKEEQDAALKYYEEYFDEAESEEDAARQLGSPDSIAEKILADYA”, 0.418. As for “HMTRQNTAVQQSDMAHHKASELTEGMSIVHSHFGRGTIISIETADDPRVTVDFSSEGRKTMLLRFAKFAIE”, the “soluble fraction (log2)” value is -0.941. Consider “HMTRQRQLIYNIIQRADDHPTAEMIYARAKAEMPSIAFGTVYRNLKLMVDAGEILHIPVAGEPDRYDK”, for which the “soluble fraction (log2)” value was -1.96.

For the sequence “HMTRVANIPYSEFLKLVETDKINDVSMVGKTISGHLDDGTKFSTYTPPNDPNLIDKLSKHNVIIKAGPE”, the “soluble fraction (log2)” value was -0.000643. For “HMTRVDKLQTWLSLPREQRDWDEGALMLLQLTGNKIMYRNLSVNPEGKANFIEGKLQQYLEFRLA” the value was -1.25; for “HMTSAHEKAFDLFDGGKLSEKALLIAVGAERSGFELAGDLRLRTLTAFEDGRLSEDAMIKLL”, -0.299; for “HMTSAIAEGTVIRLTQSTNIRESMSEDAPKVATAFSGEKVTVIMSYAEGWTKVTYGDKTGYIKTELL”, -1.1. For “HMTSAPHHIAAVLRDAIYRGVLEEGGPLHQARIAQSLGVSPIPLREALRLLETEGLVEFRGYRGAFVT” the value was -0.557.

As for “HMTSDADSLRDKTGYVAEQVTSKGGKVNLYDGGFDSLYSARSTGETISTGTEIRVVDPGGGNMLVVEPV”, the “soluble fraction (log2)” value stood at 0.948. The result for “HMTSDYEPSEKDEKAVIGIAFLRNTDVYDVDIDKAEAIKALKANNDIYQKFVKFFPFVKLPSLYDDFQ” reads 0.251; that for “HMTSGPAWPALSAQQRSVLAPLQRDWHTIDAARKAKWLEVAARFPSMPAEERQRVQERMAEWA”, -0.0911; that for “HMTSKIIIGDSYSKINKLLGEPENMKKRKFLDNEYLMVLYSINKKNYRLYFKDNILFELEDI”, -0.991.

Consider “HMTSLQDLLEELRVIRETLTGSQVLSDMQLFSQLRNLGDIKAALTRMQDNPAAARMVGEVDKLLETMFAS”, for which the “soluble fraction (log2)” value is -1.97. The result for “HMTSLSYINDLVTGATAQGLYRIVVPNQFMDDNMANVLRRTYGYQVQSRTSLMGTFDDYIISWAPPM” reads -2.9; that for “HMTSMTHLGRHPDSEISLDDISVSRRHAEIERQGHEYVLRDSGSLNGTYVNQQRVDSVVLQQGDEIL”, 0.48. For “HMTSPLQIHPNPATKHIELGLESPEVVLIKDINGKTVYQELVAPNQYIDIEHLKNGIYFIESKNKFGKLIK” the value was 0.0829; for “HMTSPNPLIRSTTPGLETNKKGGIIVDENEMSTRENVFAGGDAVTGAATVILAMGAGKKAAAAIDAKLQN”, 0.461. With “HMTSPQGIERFLASGVIEGVGKAMAARIVAVFGGQTLEIIEKQPHRLREVRGIGVKTAEKIHASYQEKA”, the “soluble fraction (log2)” value was -0.841. The result for “HMTSPVEDLLDKAIQLYREENFEEAIAKWEEVLALDPSKLEAKFNIEIAQDRIKEKQIQEDLKSS” reads 0.341; that for “HMTSQVTVHVVGAVEKPGVVTLDAPSRVQDALEAAGGALPEAELSGVNLARELFDGEQIVVPAQGEDV”, 0.342; that for “HMTSSVIIPKLIGKTEEEAKVALAGLNVQVLYETHGDQANGIVIKQSFEEGTKVIKGVSIVITVNKVS”, -1.91. Take “HMTSTEQEILIEHMVDRLPALRKKYGISQTELGEKIGLSRQTISAIERKTTPLTWTTMLAILMFFT”: the “soluble fraction (log2)” value is -1.82. For “HMTSTSVKYVNSSSGLNVRKGPSTSYDKVTTLVNGTKVTVISTNNGWSKITSGSITGYVSSQYLSSSS” the value was -1.27. On to “HMTSVAYVIDRINKIQNVYSELEALGLKDEFEKILSNIEDLSKKDIREIKTLLKTKGVIKNLDDLNVKL”, for which the “soluble fraction (log2)” value is 0.762. The result for “HMTSVQDLLRNGDRVGYQNGSTVKYWLEEMGFHKKDLLGYVTVEEYAEALQRGSGNGGVSAIVD” reads -0.811; that for “HMTTARERVYKTLQQWIVNGTLLPEERLNDVELARYFSVSRTPVREALQMLAEQKLVKMVPSSGTFVA”, -1.44.

Take “HMTTELDTTAITPIIQKVLKANPDVVAKYKAGQQQVIGFLMGQVMRELSTKPNPKELQSLIVAQLQQA”: the “soluble fraction (log2)” value was -0.0252. For “HMTTGEIIQRERTRLGLSQEKLAEQVGVSRQAVSKWELGDAVPDTDKLVPLARTLGISVDTLLD” the value was 0.12.

Regarding “HMTTGGAEELGRTERKIVEQVGRGLSNREIAQVLGLSEGTVRNYLSTILGKLGLRDRTQLAIWSVQTGFAA”, the “soluble fraction (log2)” value was 0.21. Turning to “HMTTHERHEIIELLRQVGDPMRPKEISEALGKPSGAIRFLLSKLTEEGAIKKTGYGQYTYIP”, the “soluble fraction (log2)” value was -0.784. “HMTTLTPIGKMKGEIDGDFEAFYLAVDKDGQVYLNRDPDYSENRYEKSRGWELVTREQLAVYEKELHFIP”: the “soluble fraction (log2)” value was -0.707. The result for “HMTTMYKSDVKGINYDVKAKSWFLRITFNGNQIPIGHFKTEEDAINVKQQLIPYIESKDYTSILAVKAKYS” reads -1.9; that for “HMTTPDIIVPDVKGMTVAEAQKALEEKGFKVKLEEMTQEGAVPGDVIRIDPVAGTKRKEGAKITLLIARG”, -0.0237. Consider “HMTTQTGTVKWFNEGKGFGFIAPDDGGKDLFAHFKEIQGTGFKTLAENQRVEFEVTQGQKGPQASKI”, for which the “soluble fraction (log2)” value was -0.0331. For the sequence “HMTTQTTKYVNTTAGLNVRTGPSTSYAKIVTLSYGQSVNVLSTSNGWSKINYNGSTGYVSSQYLQSTKPS”, the “soluble fraction (log2)” value was -2.28. “HMTTSNPMNVTSAEAAFDNGTDRLNAFISGRTTSEERSTYFPLFVRETKEDFLRAVGRFNEYIANHG”: the “soluble fraction (log2)” value came to 0.055. For “HMTTTAGTAVVQTGNSGKLNLREQAYSNAGILGRYSNGTIVTVLQKGSAWSYVEVQGQKGYMMSKFLRFT” the value was -2.75; for “HMTTTFGWENLVGEKGIAATDLHPSGWVTVKDQRVFVVSEGTFIEEGKEVEIMNVDGNRIVVREFKN”, 0.216. On to “HMTTTPTSQMVTELRSRGWTLRALAQRLGVGHASINRWANGVTPDRDLVAALRALVASGEVP”, for which the “soluble fraction (log2)” value is -0.833.

In the case of “HMTTTYEINDEMLKPLILEIFNKSKQRFGSTKIAPVLKREGYTASIAKVKTLMNELGIKPVNA”, the “soluble fraction (log2)” value was -1.07. The result for “HMTTTYTVPKVTGMTLEEAREDPDVVGRFTIVEGEKVTSDTVPVGQIVSQEPAAHRQVGEDGLTITVNIS” reads 0.634. The result for “HMTTVKDRVYEILKREIVLGKLKPGEPINIAVLSTKLNISSAPLREALNMLSRDGLVTLNPRKHAAVSE” reads -1.31; that for “HMTTVRLNATVPPELALQRLDRVARELFPEYSRNRLQQWIRSGELLVNGSPSGVRDKVPLGAELAVAANLE”, -0.657. The result for “HMTTVSINTTGIITASTIRASSALYPPLYTTVQRDAGTFSAGAIIFNSTTSKLEFYDGTTWQSLPG” reads -0.339.
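Note: 20 min heating vs room temperature control held 20 min.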
